Data: PMC10918085, “Cryo-EM structures reveal how phosphate release from Arp3 weakens actin filament branches formed by Arp2/3 complex” (Nature Communications, 2024)

T1: ARPC1 of S. pombe Arp2/3 complex (S. pombe, UniProt P78774 1-377)
T1 construct: ARPC1 subunit of S. pombe Arp2/3 complex; Seen within the whole complex in the branch junction
T1 sequence: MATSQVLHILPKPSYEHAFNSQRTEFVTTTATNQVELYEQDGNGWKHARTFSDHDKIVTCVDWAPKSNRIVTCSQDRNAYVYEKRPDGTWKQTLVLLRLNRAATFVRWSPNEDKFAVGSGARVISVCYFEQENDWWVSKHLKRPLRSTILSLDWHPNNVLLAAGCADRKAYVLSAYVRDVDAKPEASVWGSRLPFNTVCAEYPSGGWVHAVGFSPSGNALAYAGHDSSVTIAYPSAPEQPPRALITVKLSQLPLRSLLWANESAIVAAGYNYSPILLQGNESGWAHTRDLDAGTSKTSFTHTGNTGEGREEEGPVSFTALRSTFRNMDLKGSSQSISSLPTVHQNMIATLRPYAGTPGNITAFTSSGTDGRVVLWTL


How the values were obtained:
Settings in all cases: both partners purified
[1] = biological target: T2, Arp2 of S. pombe Arp2/3 complex (S. pombe, UniProt Q9UUJ1 1-390); assay: cryo-EM structure; ADP state: branch junctions of capped rabbit actin filaments with GCN4-VCA-activated S. pombe Arp2/3 complex, aged ~90 min; ADP on actin and Arp3, ATP on Arp2; 2.7 Å
T2 construct: Arp2 subunit of S. pombe Arp2/3 complex; Seen within the whole complex in the branch junction
T2 sequence (Q9UUJ1 whole entry, one chain of several): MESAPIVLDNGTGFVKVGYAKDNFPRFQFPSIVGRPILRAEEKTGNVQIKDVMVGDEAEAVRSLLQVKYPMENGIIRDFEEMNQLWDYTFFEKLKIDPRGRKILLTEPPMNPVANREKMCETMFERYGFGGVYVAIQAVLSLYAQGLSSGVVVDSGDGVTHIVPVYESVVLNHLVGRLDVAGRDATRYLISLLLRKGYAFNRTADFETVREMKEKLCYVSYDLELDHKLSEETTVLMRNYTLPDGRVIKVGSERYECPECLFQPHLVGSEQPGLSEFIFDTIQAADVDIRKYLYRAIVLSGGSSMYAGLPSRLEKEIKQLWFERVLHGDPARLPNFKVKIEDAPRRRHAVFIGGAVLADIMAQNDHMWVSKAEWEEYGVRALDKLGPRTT

[2] = biological target: T1, ARPC1 of S. pombe Arp2/3 complex; assay: cryo-EM structure; ADP-BeFx state: branch junctions prepared as for the ADP state, with 2 mM BeFx (2 mM BeSO4 and 10 mM NaF) added during daughter filament formation; ADP-BeFx on Arp3, ATP on Arp2; 3.2 Å
[3] = biological target: T2, Arp2 of S. pombe Arp2/3 complex; assay: as above

| Binder | binding result [1] | binding result [2] | binding result [3] |
| --- | --- | --- | --- |
| ARPC3 of S. pombe Arp2/3 complex (natural protein, ARPC3 subunit of S. pombe Arp2/3 complex; Seen within the whole complex in the branch junction) MPAYHSSFLSLTDVPTTGNIAMLPLKTKFRGPAYPADESQMDIIDECIGLFRANCFFRNFEIKGPADRTLIYGTLFISECLGRVNGLNYRDAERQLNSLALENFSIPGSAGFPLNALYAPPLSPQDAEIMRTYLTQFRQELAYRLLSHVYATEKDHPSKWWTCFSKRRFMNKAL | binds |  |  |
| ARPC2 of S. pombe Arp2/3 complex (natural protein, ARPC2 subunit of S. pombe Arp2/3 complex; Seen within the whole complex in the branch junction) MLSLDYNNIFIYELLTERFSSENPSSIDQVVTDFDGVTFHISTPEEKTKILISLSMKCYPELVNYGTLDLLKQIYGAYVHEPEMGYNFSILIDLQQLPATDEEKEQLAMSISMLKRNVLAAPFHRAFTKQAELADLARKDPENAPMLDKQATSQELMAIHYRDEETIVLWPEHDRVTVVFSTKFREETDRIFGKVFLQEFVDARRRPAIQTAPQVLFSYRDPPLEIRDIQGIQKGDDFGFVTFVLFERHFTPQNREDCISHIQVFRNTLHFHIKASKAYMHQRMRKRVADFQKVLNRAKPDVELERKTATGRSFVRA |  | binds | binds |
